Measurements from patent publication US20260265379A1 (IMCHECK THERAPEUTICS, published 2026).

Key:
[1] = target: T1, PD-L1 at the surface of transduced cells (UniProt Q9NZQ7 19-290, limits assumed); assay: flow cytometry, CHO-PD-L1 cells
T1 construct: whole, on cells; CHO-PD-L1 cells in flow cytometry, Raji-PD-L1 cells in the reporter assay; also called CHO-PD-L1; Raji-PD-L1

[2] = target: T2, BTN3A1 at the surface of HEK-BTN3A1 cells (human, UniProt O00481 30-513); assay: flow cytometry, HEK-BTN3A1 cells
T2 construct: HEK 293T BTN2A/BTN3A KO cells transduced with a BTN3A1 expressing vector
T2 sequence (O00481 30-513 limits assumed): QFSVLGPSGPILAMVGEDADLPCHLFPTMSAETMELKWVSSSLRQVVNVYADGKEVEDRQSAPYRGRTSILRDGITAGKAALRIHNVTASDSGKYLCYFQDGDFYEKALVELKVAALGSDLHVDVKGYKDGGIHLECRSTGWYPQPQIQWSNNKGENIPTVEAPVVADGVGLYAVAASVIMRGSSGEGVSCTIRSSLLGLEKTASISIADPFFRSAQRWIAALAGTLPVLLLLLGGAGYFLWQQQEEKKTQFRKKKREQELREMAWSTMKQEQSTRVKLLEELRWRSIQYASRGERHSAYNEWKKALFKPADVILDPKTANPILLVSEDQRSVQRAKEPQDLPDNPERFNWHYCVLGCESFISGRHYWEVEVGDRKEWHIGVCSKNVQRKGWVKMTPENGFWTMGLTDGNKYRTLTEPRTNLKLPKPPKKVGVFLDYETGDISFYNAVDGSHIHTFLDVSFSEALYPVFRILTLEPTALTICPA

[3] = target: T1, PD-L1 at the surface of transduced cells; assay: cell-based or functional assay
[4] = target: T3, recombinant human BTN3A1 (human, UniProt O00481 30-254); assay: SPR
T3 construct: Soluble form of the antigen used in SPR; also called rhBTN3A1; recombinant BTN3A1 protein
T3 sequence (O00481 30-254 limits assumed): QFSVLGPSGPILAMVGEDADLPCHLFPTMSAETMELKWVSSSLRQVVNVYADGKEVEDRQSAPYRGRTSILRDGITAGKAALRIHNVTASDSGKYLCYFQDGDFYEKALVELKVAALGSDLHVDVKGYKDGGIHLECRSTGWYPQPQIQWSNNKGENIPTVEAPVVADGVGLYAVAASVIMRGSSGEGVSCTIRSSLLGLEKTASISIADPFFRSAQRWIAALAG
Description: (§1) SPR measures the interactions between two or more biomolecules. In capture kinetics analysis, an antibody is immobilized onto a gold-plated prism. The immobilized antibody is referred to as the ligand. An injection of antigen, referred to as the analyte, is carried out, often as a concentration series. The captured analytes are removed from the sensor chip surface using a regenerating agent, for example a low pH or high ionic strength solution. If investigating binding to several analytes, the antibodies are recaptured from solution before each analyte titration series. The instrument records the changes in refractive indexes (due to the accumulation or depletion of mass) in time and plots the results as sensorgrams.
(§2) Affinity measurements with respect to BTN3A, PD-1 and PD-L1 were performed by SPR technology, for instance in a Carterra LSA Platform instrument using a soluble form of the antigen as the analyte and the antibody as the ligand. Binding was also assessed through in cellulo binding assays, on cell lines (e.g. HEK293T cells) genetically modified to express the targets of interest or genetically modified to extinct target expression.
(§3) The 69 produced bsAbs and control mAbs were also evaluated for their binding affinity to recombinant proteins by SPR assays. The equilibrium dissociation constant (KD) was then calculated for constructs showing detectable binding.

[5] = target: T4, PD-1 at the surface of Jurkat-PD-1 cells (human, UniProt Q15116 25-288); assay: flow cytometry, Jurkat-PD-1 cells
T4 construct: whole, on cells
T4 sequence (Q15116 25-288): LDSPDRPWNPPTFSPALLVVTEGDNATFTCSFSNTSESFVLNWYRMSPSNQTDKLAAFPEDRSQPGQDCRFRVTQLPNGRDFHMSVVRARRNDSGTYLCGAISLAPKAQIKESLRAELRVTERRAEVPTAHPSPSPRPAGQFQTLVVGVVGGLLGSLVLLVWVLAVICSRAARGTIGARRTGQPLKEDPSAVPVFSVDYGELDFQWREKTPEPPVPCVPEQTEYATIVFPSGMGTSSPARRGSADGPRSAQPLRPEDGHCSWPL

[6] = target: T5, recombinant human PD-1 (human, UniProt Q15116 25-167, limits assumed); assay: SPR
T5 construct: Soluble antigen in SPR; also called rhPD-1
T5 sequence (Q15116 25-167 limits assumed): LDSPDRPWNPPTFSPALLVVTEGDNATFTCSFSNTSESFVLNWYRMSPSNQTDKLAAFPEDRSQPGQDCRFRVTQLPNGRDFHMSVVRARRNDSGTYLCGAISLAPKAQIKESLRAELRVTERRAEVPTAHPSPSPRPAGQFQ
Description: as §1, §2, §3

T1 sequence (Q9NZQ7 19-290 limits assumed): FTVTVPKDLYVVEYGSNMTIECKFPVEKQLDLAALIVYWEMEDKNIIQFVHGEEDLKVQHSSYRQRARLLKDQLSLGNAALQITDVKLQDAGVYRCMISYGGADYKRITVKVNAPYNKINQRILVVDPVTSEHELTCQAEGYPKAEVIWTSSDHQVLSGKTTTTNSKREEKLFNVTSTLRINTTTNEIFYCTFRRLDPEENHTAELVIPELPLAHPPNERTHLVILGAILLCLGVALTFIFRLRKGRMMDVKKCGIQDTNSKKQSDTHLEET

Binder	MFI at 10 nM [1] [MFI]	MFI at 100 nM [1] [MFI]	MFI at 10 nM [2] [MFI]	MFI at 100 nM [2] [MFI]	Jurkat-PD-1 activation at 10 nM [3]	Jurkat-PD-1 activation at 100 nM [3]	Kd [4] [nM]	MFI at 10 nM [5] [MFI]	MFI at 100 nM [5] [MFI]	Kd [6] [nM]
bsAb048 (bispecific antibody, IgG anti-BTN3A, one scFv anti-PD-L1; not shown: IgG1 CH1-hinge-CH2-CH3) heavy 1: EIVLTQSPGTLSLSPGERATLSCRASQRVSSSYLAWYQQKPGQAPRLLIYDASSRATGIPDRFSGSGSGTDFTLTISRLEPEDFAVYYCQQYGSLPWTFGQGTKVEIKGGGGSGGGGSGGGGSGGGGSEVQLVESGGGLVQPGGSLRLSCAASGFTFSRYWMSWVRQAPGKGLEWVANIKQDGSEKYYVDSVKGRFTISRDNAKNSLYLQMNSLRAEDTAVYYCAREGGWFGELAFDYWGQGTLVTVSSGGGGSGGGGSGGGGSGGGGSQVQLVQSGAEVKKPGASVKLSCKASGYIFTRYYMYWVKQRPGQGLEWIGEINPNNGGTKFNEKFKNRATLTVDKSISTAYMELSRLRSDDTAVYYCSREDDYDGTPFAMDYWGQGTLVTVSS heavy 2: QVQLVQSGAEVKKPGASVKLSCKASGYIFTRYYMYWVKQRPGQGLEWIGEINPNNGGTKFNEKFKNRATLTVDKSISTAYMELSRLRSDDTAVYYCSREDDYDGTPFAMDYWGQGTLVTVSS light: not shown	1.18e+06	1.36e+06	592000	1.02e+06	7.4 fold-change to medium	8.9 fold-change to medium	0.08			
bsAb050 (bispecific antibody, IgG anti-BTN3A, one scFv anti-PD-L1; not shown: IgG1 CH1-hinge-CH2-CH3) heavy 1: EVQLVESGGGLVQPGGSLRLSCAASGFTFSRYWMSWVRQAPGKGLEWVANIKQDGSEKYYVDSVKGRFTISRDNAKNSLYLQMNSLRAEDTAVYYCAREGGWFGELAFDYWGQGTLVTVSSGGGGSGGGGSGGGGSGGGGSEIVLTQSPGTLSLSPGERATLSCRASQRVSSSYLAWYQQKPGQAPRLLIYDASSRATGIPDRFSGSGSGTDFTLTISRLEPEDFAVYYCQQYGSLPWTFGQGTKVEIKGGGGSGGGGSGGGGSGGGGSQVQLVQSGAEVKKPGASVKLSCKASGYIFTRYYMYWVKQRPGQGLEWIGEINPNNGGTKFNEKFKNRATLTVDKSISTAYMELSRLRSDDTAVYYCSREDDYDGTPFAMDYWGQGTLVTVSS heavy 2: QVQLVQSGAEVKKPGASVKLSCKASGYIFTRYYMYWVKQRPGQGLEWIGEINPNNGGTKFNEKFKNRATLTVDKSISTAYMELSRLRSDDTAVYYCSREDDYDGTPFAMDYWGQGTLVTVSS light: not shown	1.18e+06	1.32e+06	535000	1.2e+06	6.9 fold-change to medium	7.8 fold-change to medium	0.08			
bsAb021 (bispecific antibody, IgG anti-PD-1, scFv anti-BTN3A) heavy: QVQLVQSGAEVKKPGASVKLSCKASGYIFTRYYMYWVKQRPGQGLEWIGEINPNNGGTKFNEKFKNRATLTVDKSISTAYMELSRLRSDDTAVYYCSREDDYDGTPFAMDYWGQGTLVTVSSGGGGSGGGGSGGGGSGGGGSDIQMTQSPSSLSASVGDRVTITCHASQNINVWLSWYQQKPGKAPKLLIYKASNLHTGVPSRFTGSGSGTDFTFTISSLQPEDIATYYCQQGQTYPYTFGQGTKLEIKGGGGSGGGGSGGGGSGGGGSQVQLVQSGVEVKKPGASVKVSCKASGYTFTNYYMYWVRQAPGQGLEWMGGINPSNGGTNFNEKFKNRVTLTTDSSTTTAYMELKSLQFDDTAVYYCARRDYRFDMGFDYWGQGTTVTVSSASTKGPSVFPLAPSSKSTSGGTAALGCLVKDYFPEPVTVSWNSGALTSGVHTFPAVLQSSGLYSLSSVVTVPSSSLGTQTYICNVNHKPSNTKVDKRVEPKSCDKTHTCPPCPAPEFEGGPSVFLFPPKPKDTLMISRTPEVTCVVVDVSHEDPEVKFNWYVDGVEVHNAKTKPREEQYNSTYRVVSVLTVLHQDWLNGKEYKCKVSNKALPASIEKTISKAKGQPREPQVYTLPPSREEMTKNQVSLTCLVKGFYPSDIAVEWESNGQPENNYKTTPPVLDSDGSFFLYSKLTVDKSRWQQGNVFSCSVMHEALHNHYTQKSLSLSPG light: EIVLTQSPATLSLSPGERATLSCRASKGVSTSGYSYLHWYQQKPGQAPRLLIYLASYLESGVPARFSGSGSGTDFTLTISSLEPEDFAVYYCQHSRDLPLTFGGGTKVEIKRTVAAPSVFIFPPSDEQLKSGTASVVCLLNNFYPREAKVQWKVDNALQSGNSQESVTEQDSKDSTYSLSSTLTLSKADYEKHKVYACEVTHQGLSSPVTKSFNRGEC			816000	944000			0.068	186000	275000	1.5
bsAb034 (bispecific antibody, one Fab arm anti-PD-1, two scFv anti-BTN3A; not shown: IgG1 CH1-hinge-CH2-CH3; CH2-CH3 (Fc)) heavy (part 1 of 2): QVQLVQSGVEVKKPGASVKVSCKASGYTFTNYYMYWVRQAPGQGLEWMGGINPSNGGTNFNEKFKNRVTLTTDSSTTTAYMELKSLQFDDTAVYYCARRDYRFDMGFDYWGQGTTVTVSS heavy (part 2 of 2): GGGGSGGGGSGGGGSGGGGSQVQLVQSGAEVKKPGASVKLSCKASGYIFTRYYMYWVKQRPGQGLEWIGEINPNNGGTKFNEKFKNRATLTVDKSISTAYMELSRLRSDDTAVYYCSREDDYDGTPFAMDYWGQGTLVTVSSGGGGSGGGGSGGGGSGGGGSDIQMTQSPSSLSASVGDRVTITCHASQNINVWLSWYQQKPGKAPKLLIYKASNLHTGVPSRFTGSGSGTDFTFTISSLQPEDIATYYCQQGQTYPYTFGQGTKLEIK heavy: GGGGSGGGGSGGGGSGGGGSQVQLVQSGAEVKKPGASVKLSCKASGYIFTRYYMYWVKQRPGQGLEWIGEINPNNGGTKFNEKFKNRATLTVDKSISTAYMELSRLRSDDTAVYYCSREDDYDGTPFAMDYWGQGTLVTVSSGGGGSGGGGSGGGGSGGGGSDIQMTQSPSSLSASVGDRVTITCHASQNINVWLSWYQQKPGKAPKLLIYKASNLHTGVPSRFTGSGSGTDFTFTISSLQPEDIATYYCQQGQTYPYTFGQGTKLEIK light: EIVLTQSPATLSLSPGERATLSCRASKGVSTSGYSYLHWYQQKPGQAPRLLIYLASYLESGVPARFSGSGSGTDFTLTISSLEPEDFAVYYCQHSRDLPLTFGGGTKVEIKRTVAAPSVFIFPPSDEQLKSGTASVVCLLNNFYPREAKVQWKVDNALQSGNSQESVTEQDSKDSTYSLSSTLTLSKADYEKHKVYACEVTHQGLSSPVTKSFNRGEC			706000	1.24e+06			0.167	210000	381000	1.9
bsAb037 (bispecific antibody, one Fab arm anti-PD-1, two scFv anti-BTN3A; not shown: IgG1 CH1-hinge-CH2-CH3; CH2-CH3 (Fc)) heavy 1: QVQLVQSGVEVKKPGASVKVSCKASGYTFTNYYMYWVRQAPGQGLEWMGGINPSNGGTNFNEKFKNRVTLTTDSSTTTAYMELKSLQFDDTAVYYCARRDYRFDMGFDYWGQGTTVTVSS heavy 2: DIQMTQSPSSLSASVGDRVTITCHASQNINVWLSWYQQKPGKAPKLLIYKASNLHTGVPSRFTGSGSGTDFTFTISSLQPEDIATYYCQQGQTYPYTFGQGTKLEIKGGGGSGGGGSGGGGSGGGGSQVQLVQSGAEVKKPGASVKLSCKASGYIFTRYYMYWVKQRPGQGLEWIGEINPNNGGTKFNEKFKNRATLTVDKSISTAYMELSRLRSDDTAVYYCSREDDYDGTPFAMDYWGQGTLVTVSSGGGGSGGGGSGGGGSGGGGS light: EIVLTQSPATLSLSPGERATLSCRASKGVSTSGYSYLHWYQQKPGQAPRLLIYLASYLESGVPARFSGSGSGTDFTLTISSLEPEDFAVYYCQHSRDLPLTFGGGTKVEIKRTVAAPSVFIFPPSDEQLKSGTASVVCLLNNFYPREAKVQWKVDNALQSGNSQESVTEQDSKDSTYSLSSTLTLSKADYEKHKVYACEVTHQGLSSPVTKSFNRGECGGGGSGGGGSGGGGSGGGGSQVQLVQSGAEVKKPGASVKLSCKASGYIFTRYYMYWVKQRPGQGLEWIGEINPNNGGTKFNEKFKNRATLTVDKSISTAYMELSRLRSDDTAVYYCSREDDYDGTPFAMDYWGQGTLVTVSSGGGGSGGGGSGGGGSGGGGSDIQMTQSPSSLSASVGDRVTITCHASQNINVWLSWYQQKPGKAPKLLIYKASNLHTGVPSRFTGSGSGTDFTFTISSLQPEDIATYYCQQGQTYPYTFGQGTKLEIK			585000	1.25e+06			0.086	238000	270000	1.1
bsAb039 (bispecific antibody, one Fab arm anti-PD-1, two scFv anti-BTN3A; not shown: IgG1 CH1-hinge-CH2-CH3; CH2-CH3 (Fc)) heavy (part 1 of 2): QVQLVQSGVEVKKPGASVKVSCKASGYTFTNYYMYWVRQAPGQGLEWMGGINPSNGGTNFNEKFKNRVTLTTDSSTTTAYMELKSLQFDDTAVYYCARRDYRFDMGFDYWGQGTTVTVSS heavy (part 2 of 2): GGGGSGGGGSGGGGSGGGGSDIQMTQSPSSLSASVGDRVTITCHASQNINVWLSWYQQKPGKAPKLLIYKASNLHTGVPSRFTGSGSGTDFTFTISSLQPEDIATYYCQQGQTYPYTFGQGTKLEIKGGGGSGGGGSGGGGSGGGGSQVQLVQSGAEVKKPGASVKLSCKASGYIFTRYYMYWVKQRPGQGLEWIGEINPNNGGTKFNEKFKNRATLTVDKSISTAYMELSRLRSDDTAVYYCSREDDYDGTPFAMDYWGQGTLVTVSS heavy: GGGGSGGGGSGGGGSGGGGSDIQMTQSPSSLSASVGDRVTITCHASQNINVWLSWYQQKPGKAPKLLIYKASNLHTGVPSRFTGSGSGTDFTFTISSLQPEDIATYYCQQGQTYPYTFGQGTKLEIKGGGGSGGGGSGGGGSGGGGSQVQLVQSGAEVKKPGASVKLSCKASGYIFTRYYMYWVKQRPGQGLEWIGEINPNNGGTKFNEKFKNRATLTVDKSISTAYMELSRLRSDDTAVYYCSREDDYDGTPFAMDYWGQGTLVTVSS light: EIVLTQSPATLSLSPGERATLSCRASKGVSTSGYSYLHWYQQKPGQAPRLLIYLASYLESGVPARFSGSGSGTDFTLTISSLEPEDFAVYYCQHSRDLPLTFGGGTKVEIKRTVAAPSVFIFPPSDEQLKSGTASVVCLLNNFYPREAKVQWKVDNALQSGNSQESVTEQDSKDSTYSLSSTLTLSKADYEKHKVYACEVTHQGLSSPVTKSFNRGEC			1.14e+06	1.81e+06			0.187	294000	283000	2.1
